Measurements reported in patent publication US12630620 (dated 2026).
Like-named read-outs stand apart in the source and are kept apart here.

T1: commercial GDF15 recombinant protein (R&D, 9279-GD) (UniProt Q99988 197-308)
T1 chain: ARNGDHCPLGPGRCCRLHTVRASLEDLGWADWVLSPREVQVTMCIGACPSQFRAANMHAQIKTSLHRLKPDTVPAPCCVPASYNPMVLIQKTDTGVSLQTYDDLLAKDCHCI


Key:
[1] = molecular target: T1, commercial GDF15 recombinant protein …; test: SPR
[2] = molecular target: T1, commercial GDF15 recombinant protein …; test: SPR

Kd [1] | Kd [2] | Binder
572 nM |  | anti-GDF15 neutralizing monoclonal antibody G2 (antibody, V domains shown) VH: QVQLQQSGAELARPGASVKLSCKASGYTFTDYYINWVKQRTGQGLEWIGEIYPGSGNTYYNEKFKGKATLTADKSSSTAYMQLSSLTSEDSAVYFCARVRALLRPLAMDYWGQGTSVTVSS VL: QIVLSQSPAILSASPGEKVTMTCRASSSVSYMHWYQQKPGSSPKPWIYATSNLASGVPARFSGSGSGTSYSLTISRVEAEDAATYYCQQWSSNPPFTFGSGTKLEIK
 | 71.4 nM | anti-GDF15 neutralizing monoclonal antibody G1 (antibody, V domains shown) VH: DVQLQESGPGLVKPSQSLSLTCTVTGYSITSAYAWNWIRQFPGNKLEWMGYISYSGSTSYNPSLKSRISITRDTSKNQFFLQFNSVTTEDTATYYCARGGDAEDYWGQGTTLTVSS VL: DIQMTQSPASLSVSVGETVTITCRASENIYSNLAWFQQKQGKSPQLLVYVATNLVDGVPSRFSGSGSGTQYSLKINSLQSEDFGTYYCQHFWGTPWTFGGGTKLEIK
